Results from PMC5590460.

Target: recombinant MUC5AC C terminus protein (human)
Assay: SDS-PAGE under non-reducing and reducing conditions with western blot; purified recombinant protein from cell lysates and cell supernatants run reduced and non-reduced on 6% Bis-Tris acrylamide or 3%-8% Tris-Acetate gels, transferred to PVDF, probed with a His antibody

stoichiometry N: 2
Substance: recombinant MUC5AC C terminus protein (domain or fragment)
